What was measured:
[1] = target: T1, C3(NH3) (Homo sapiens, UniProt P01024); assay: Cleavage of dead C3, C3(NH3), by MASP fragments, SDS-PAGE densitometry; type: biochemical; conditions: control experiment
T1 construct: was isolated from fresh human serum; from tissue; host or cells: fresh human serum, then amidolysis with ammonium hydrogen carbonate
Method: Amidolysis of C3 The intact thiol ester bond in ‘live’ C3 was cleaved using ammonium salt as the nucleophile to obtain ‘dead’ C3(NH3), according to Soames and Sim (1997) with modifications. C3 was incubated with a final concentration of 0.2 M ammonium hydrogen carbonate for 90 min at 37° C., making sure that the final pH of the reaction was above 8.0. At the end of the incubation, the reaction was collected with a brief centrifugation (5 min, 8000 g, RT) and dialyzed against 20 mM HEPES, 140 mM NaCl, pH 7.4.
C2, C3, C3(NH3), C4 cleavage—Serial dilutions of MASP-1 and MASP-2 fragments ranging between concentrations of 1 μM and 10 pM were incubated at 37° C. in 20 mM HEPES, 140 mM NaCl, pH 7.4 with C2, C3, C3(NH3) or C4 at typical concentrations of 0.5-1 μM. The cleavage was followed by SDS-PAGE under reducing conditions. Desirable concentrations of the MASP fragments for further detailed kinetic analysis were chosen to be where half of the protein substrates were hydrolyzed during the first 20 minutes of incubation. […] Cleavages rates were quantified by measuring the diminution of the cleaved chain visualized by Coomassie stained SDS-PAGs using a GEL DOC 1000 instrument and Molecular Analyst Software for densitometric calculations (Bio-Rad, Hercules, Calif., USA). […]

[2] = Differential scanning calorimetry of C1r fragments; type: physicochemical; conditions: 20 mM Tris pH 8.3, 145 mM NaCl, 0.1 mg/ml, 1° C./min
Method: Calorimetric measurements were performed on a VP-DSC (Microcal Inc, Northampton, Mass.) differential scanning calorimeter. Denaturation curves were recorded between 10 and 80° C. at a pressure of 2.5 atm, using a scanning rate of 1° C./min. The protein concentration was set to 0.1 mg/ml. Samples were dialyzed against 20 mM Tris pH 8.3 145 mM NaCl, and the dialysis buffer was used as a reference. Heat capacities were calculated as outlined by Privalov (16).

[3] = target: T2, live C3 (Homo sapiens, UniProt P01024); assay: Cleavage of live C3 by MASP fragments, SDS-PAGE densitometry; type: biochemical; conditions: control experiment
T2 construct: was isolated from fresh human serum; from tissue; host or cells: fresh human serum
T2 sequence (P01024 672-1663 limits assumed): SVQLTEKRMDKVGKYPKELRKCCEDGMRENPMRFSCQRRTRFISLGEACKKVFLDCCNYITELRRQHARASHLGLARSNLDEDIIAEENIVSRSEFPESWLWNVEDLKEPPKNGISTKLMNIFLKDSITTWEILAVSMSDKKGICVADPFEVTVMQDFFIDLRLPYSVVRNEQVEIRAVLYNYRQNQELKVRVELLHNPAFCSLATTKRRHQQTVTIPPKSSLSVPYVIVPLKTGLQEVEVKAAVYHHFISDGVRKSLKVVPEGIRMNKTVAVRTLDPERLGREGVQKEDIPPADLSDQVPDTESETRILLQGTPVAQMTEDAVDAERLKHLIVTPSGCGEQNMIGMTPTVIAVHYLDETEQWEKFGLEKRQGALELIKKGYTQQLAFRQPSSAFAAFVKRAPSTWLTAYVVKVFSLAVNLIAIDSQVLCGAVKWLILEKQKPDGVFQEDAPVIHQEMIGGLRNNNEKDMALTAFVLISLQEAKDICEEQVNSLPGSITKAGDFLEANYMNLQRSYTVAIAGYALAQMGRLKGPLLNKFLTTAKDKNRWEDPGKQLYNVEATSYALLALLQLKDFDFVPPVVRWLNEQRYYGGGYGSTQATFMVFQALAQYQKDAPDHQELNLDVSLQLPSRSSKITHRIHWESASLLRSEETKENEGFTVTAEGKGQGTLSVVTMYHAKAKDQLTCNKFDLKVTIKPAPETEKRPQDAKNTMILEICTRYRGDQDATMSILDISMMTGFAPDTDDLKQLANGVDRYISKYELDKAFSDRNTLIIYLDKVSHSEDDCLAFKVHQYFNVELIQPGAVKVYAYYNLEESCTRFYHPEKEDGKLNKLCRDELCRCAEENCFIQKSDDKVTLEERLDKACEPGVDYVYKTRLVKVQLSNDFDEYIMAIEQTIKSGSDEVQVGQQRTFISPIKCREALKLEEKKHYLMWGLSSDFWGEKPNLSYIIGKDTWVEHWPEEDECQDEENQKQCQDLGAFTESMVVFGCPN
T2 sequence (P01024 23-667 partner limits assumed): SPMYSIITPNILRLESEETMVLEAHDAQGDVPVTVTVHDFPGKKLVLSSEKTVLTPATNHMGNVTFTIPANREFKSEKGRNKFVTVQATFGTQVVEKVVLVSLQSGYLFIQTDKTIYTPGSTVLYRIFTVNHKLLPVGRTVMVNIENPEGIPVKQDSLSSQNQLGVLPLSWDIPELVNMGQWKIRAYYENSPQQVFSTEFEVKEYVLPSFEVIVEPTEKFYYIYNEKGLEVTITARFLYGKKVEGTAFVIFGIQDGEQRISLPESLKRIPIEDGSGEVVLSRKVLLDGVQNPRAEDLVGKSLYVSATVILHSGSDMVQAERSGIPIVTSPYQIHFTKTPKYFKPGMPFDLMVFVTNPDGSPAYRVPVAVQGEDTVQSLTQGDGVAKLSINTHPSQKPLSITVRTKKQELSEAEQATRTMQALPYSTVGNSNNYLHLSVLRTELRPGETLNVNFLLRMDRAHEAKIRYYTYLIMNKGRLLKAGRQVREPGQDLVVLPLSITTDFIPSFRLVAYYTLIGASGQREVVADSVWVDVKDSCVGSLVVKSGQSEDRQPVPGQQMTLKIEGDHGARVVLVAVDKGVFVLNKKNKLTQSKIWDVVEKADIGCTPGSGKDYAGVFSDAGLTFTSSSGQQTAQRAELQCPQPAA
Method: C2, C3, C3(NH3), C4 cleavage—Serial dilutions of MASP-1 and MASP-2 fragments ranging between concentrations of 1 μM and 10 pM were incubated at 37° C. in 20 mM HEPES, 140 mM NaCl, pH 7.4 with C2, C3, C3(NH3) or C4 at typical concentrations of 0.5-1 μM. The cleavage was followed by SDS-PAGE under reducing conditions. Desirable concentrations of the MASP fragments for further detailed kinetic analysis were chosen to be where half of the protein substrates were hydrolyzed during the first 20 minutes of incubation. The protein substrates C2, C3, C3(NH3) or C4 were then incubated with the selected concentrations of the MASP fragments at 37° C. in 20 mM HEPES, 140 mM NaCl, pH 7.4. Typically 11-13 samples were taken at varying time periods but always within 50 minutes from the beginning of the reaction. Cleavages rates were quantified by measuring the diminution of the cleaved chain visualized by Coomassie stained SDS-PAGs using a GEL DOC 1000 instrument and Molecular Analyst Software for densitometric calculations (Bio-Rad, Hercules, Calif., USA). The reactions were assumed to be of the Michaelis-Menten type. In the case of C3 and C3(NH3) cleavage a further reasonable assumption of KM>>[substrate] was made. […]

T1 sequence (P01024 672-1663 limits assumed): as the sequence (P01024 672-1663 limits assumed) above
T1 sequence (P01024 23-667 partner limits assumed): as the sequence (P01024 23-667 partner limits assumed) above

| cleavage of 'dead' C3, in words [1] | cleavage of 'live' C3, in words [3] | Molecule | DSC melting / unfolding transition temperature [2] [°C] |
| --- | --- | --- | --- |
| no cleavages | no cleavages | CCP1-CCP2-SP: E. coli-expressed, refolded human C1r CCP1-CCP2-SP fragment, amino acids 309-705, N-terminal Ser-Thr-Gln-Ala (protein) chain 1: STQACPQPKTLDEFTIIQNLQPQYQFRDYFIATCKQGYQLIEGNQVLHSFTAVCQDDGTWHRAMPRCKIKDCGQPRNLPNGDFRYTTTMGVNTYKARIQYYCHEPYYKMQTRAGSRESEQGVYTCTAQGIWKNEQKGEKIPRCLPVCGKPVNPVEQRQR chain 2: IIGGQKAKMGNFPWQVFTNIHGRGGGALLGDRWILTAAHTLYPKEHEAQSNASLDVFLGHTNVEELMKLGNHPIRRVSVHPDYRQDESYNFEGDIALLELENSVTLGPNLLPICLPDNDTFYDLGLMGYVSGFGVMEEKIAHDLRFVRLPVANPQACENWLRGKNRMDVFSQNMFCAGHPSLKQDACQGDSGGVFAVRDPNTDRWVATGIVSWGIGCSRGYGFYTKVLNYVDWIKKEMEEED | 57.5 |
|  |  | CCP2-SP: E. coli-expressed, refolded human C1r CCP2-SP fragment, amino acids 376-705, N-terminal Ser-Thr-Gln-Ala (protein) chain 1: STQACGQPRNLPNGDFRYTTTMGVNTYKARIQYYCHEPYYKMQTRAGSRESEQGVYTCTAQGIWKNEQKGEKIPRCLPVCGKPVNPVEQRQR chain 2: IIGGQKAKMGNFPWQVFTNIHGRGGGALLGDRWILTAAHTLYPKEHEAQSNASLDVFLGHTNVEELMKLGNHPIRRVSVHPDYRQDESYNFEGDIALLELENSVTLGPNLLPICLPDNDTFYDLGLMGYVSGFGVMEEKIAHDLRFVRLPVANPQACENWLRGKNRMDVFSQNMFCAGHPSLKQDACQGDSGGVFAVRDPNTDRWVATGIVSWGIGCSRGYGFYTKVLNYVDWIKKEMEEED | 55.4 |

From patent US8173397B2, “Folded recombinant catalytic fragments of multidomain serine proteases, preparation and uses thereof” (TargetEx Kft., priority 2002, dated 2012)
